Reference: the supplement of paper PMC7877785
± gives the uncertainty stated by the source.

Assay: self-splicing fitness, log relative to wild type (ln ratio); higher = more splicing; Tetrahymena group I intron in knt gene, E. coli kanamycin selection, DiMSum; sequences stand for … in CUCUCU…GGAGGGAAAAGUUAUCAGGCAUGCACCUGGUAGCUAGUCUUUAAACCAAUAGAUUGCAUCGGUUUAAAAGGCAAGACCGUCAAAUUGCGGGAAAGGGGUCAACAGCCGUUCAGUACCAAGUCUCAGGGGAAACUUUGAGAUGGCCUUGCAAAGGGUAUGGUAAUAAGCUGACGGACAUGGUCCUAACCACGCAGCCAAGUCCUAAGUCAACAGAUCUUCUGUUGAUAUGGAUGCAGUUCACAGACUAAAUGUCGGUCGGGGAAGAUGUAUUCUUCUCAUAAGAUAUAGUCGGACCUCUCCUUAAUGGGAGCUAGCGGAUGAAGUGAUGCAACACUGGAGCCGCUGGGAACUAAUUUGUAUGCGAAAGUAUAUUGAUUAGUUUUGGAGUACUCGUGGUCG
Outline: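 A randomised library covering all eight P1ex-region intron nucleotides was built with the intron in the knt kanamycin-resistance gene on pET-22b(+) and held in E. coli BL21(DE3). Cells were grown overnight at 37°C or 30°C on LB agar, with or without 25 μg/mL kanamycin, plus 100 μg/mL carbenicillin, 50 μM IPTG and 0.2% rhamnose, and pooled colonies were amplicon-sequenced on an Illumina HiSeq 2500. DiMSum fitness is the error-weighted combination of wild-type-normalised replicate fold changes, kanamycin versus none.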

## CGUGAGCAAUAUUACGACCC
30 °C
  self-splicing fitness (ln): -1.76 ± 0.23
37 °C
  self-splicing fitness (ln): -0.787 ± 0.16

## CUUGAGCAAUAUUACGUAUA
30 °C
  self-splicing fitness (ln): -3.5 ± 0.2
37 °C
  self-splicing fitness (ln): -2.96 ± 0.28

## CAGUAGCAAUAUUACGGUAA
30 °C
  self-splicing fitness (ln): -3.19 ± 0.31
37 °C
  self-splicing fitness (ln): -1.57 ± 0.22

## UUGCAGCAAUAUUACGUACU
30 °C
  self-splicing fitness (ln): -1.36 ± 0.12
37 °C
  self-splicing fitness (ln): -0.848 ± 0.12

## ACACAGCAAUAUUACGAACU
30 °C
  self-splicing fitness (ln): -0.798 ± 0.05
37 °C
  self-splicing fitness (ln): -0.493 ± 0.068

## UGUCAGCAAUAUUACGGAAU
30 °C
  self-splicing fitness (ln): -2.63 ± 0.15
37 °C
  self-splicing fitness (ln): -0.922 ± 0.14

## CUCAAGCAAUAUUACGCACG
30 °C
  self-splicing fitness (ln): -2.51 ± 0.14
37 °C
  self-splicing fitness (ln): -0.724 ± 0.16

## GAGGAGCAAUAUUACGUUGA
30 °C
  self-splicing fitness (ln): -3.73 ± 0.42
37 °C
  self-splicing fitness (ln): -2.24 ± 0.33

## UUUCAGCAAUAUUACGAAUU
30 °C
  self-splicing fitness (ln): -1.67 ± 0.081
37 °C
  self-splicing fitness (ln): -0.87 ± 0.12

## AACUAGCAAUAUUACGACCG
30 °C
  self-splicing fitness (ln): -0.914 ± 0.12
37 °C
  self-splicing fitness (ln): 0.134 ± 0.15

## GUGAAGCAAUAUUACGUUCA
30 °C
  self-splicing fitness (ln): -1.45 ± 0.078
37 °C
  self-splicing fitness (ln): -0.809 ± 0.09

## CGGAAGCAAUAUUACGACAG
30 °C
  self-splicing fitness (ln): -0.256 ± 0.17
37 °C
  self-splicing fitness (ln): 0.0808 ± 0.23

## GUGAAGCAAUAUUACGUAUC
30 °C
  self-splicing fitness (ln): -1.08 ± 0.059
37 °C
  self-splicing fitness (ln): 0.384 ± 0.068

## UACAAGCAAUAUUACGCAAU
30 °C
  self-splicing fitness (ln): -3.44 ± 0.21
37 °C
  self-splicing fitness (ln): -2.47 ± 0.23

## AAGAAGCAAUAUUACGCCCA
30 °C
  self-splicing fitness (ln): -0.613 ± 0.21
37 °C
  self-splicing fitness (ln): -1.85 ± 0.44

## AAGCAGCAAUAUUACGCAUA
30 °C
  self-splicing fitness (ln): -2.01 ± 0.11
37 °C
  self-splicing fitness (ln): -0.237 ± 0.1

## UACAAGCAAUAUUACGGUAG
30 °C
  self-splicing fitness (ln): -2.15 ± 0.089
37 °C
  self-splicing fitness (ln): -1.43 ± 0.086

## CGCCAGCAAUAUUACGCAAC
30 °C
  self-splicing fitness (ln): -3.25 ± 0.27
37 °C
  self-splicing fitness (ln): -3.44 ± 0.42

## CGUCAGCAAUAUUACGUUCG
30 °C
  self-splicing fitness (ln): -1.45 ± 0.068
37 °C
  self-splicing fitness (ln): -0.148 ± 0.096

## UAAGAGCAAUAUUACGGAUU
37 °C
  self-splicing fitness (ln): -2.13 ± 0.48

## UCUAAGCAAUAUUACGCCUA
37 °C
  self-splicing fitness (ln): -1.36 ± 0.26

## GUCUAGCAAUAUUACGAGUA
30 °C
  self-splicing fitness (ln): -1.19 ± 0.21
37 °C
  self-splicing fitness (ln): -1.39 ± 0.22

## GAAAAGCAAUAUUACGCAUC
30 °C
  self-splicing fitness (ln): -3.17 ± 0.17
37 °C
  self-splicing fitness (ln): -2.78 ± 0.18

## UUUUAGCAAUAUUACGAGCU
30 °C
  self-splicing fitness (ln): -2.57 ± 0.33
37 °C
  self-splicing fitness (ln): -2.22 ± 0.31

## UUUUAGCAAUAUUACGCAAU
30 °C
  self-splicing fitness (ln): -2.98 ± 0.41

## CGUUAGCAAUAUUACGUACC
30 °C
  self-splicing fitness (ln): -1.39 ± 0.15
37 °C
  self-splicing fitness (ln): -1.09 ± 0.18

## CGUCAGCAAUAUUACGACAU
30 °C
  self-splicing fitness (ln): -0.647 ± 0.012
37 °C
  self-splicing fitness (ln): -0.0443 ± 0.032

## GAUCAGCAAUAUUACGGUGU
30 °C
  self-splicing fitness (ln): -0.951 ± 0.072
37 °C
  self-splicing fitness (ln): 0.335 ± 0.093

## CGCUAGCAAUAUUACGGCCU
30 °C
  self-splicing fitness (ln): -0.677 ± 0.073
37 °C
  self-splicing fitness (ln): -0.609 ± 0.1

## GCCGAGCAAUAUUACGUCAG
30 °C
  self-splicing fitness (ln): -3.33 ± 0.16
37 °C
  self-splicing fitness (ln): -1.87 ± 0.19

## AAGGAGCAAUAUUACGUCUU
30 °C
  self-splicing fitness (ln): -1.9 ± 0.09
37 °C
  self-splicing fitness (ln): -1.14 ± 0.13

## UGCGAGCAAUAUUACGAGGU
30 °C
  self-splicing fitness (ln): -1.68 ± 0.19
37 °C
  self-splicing fitness (ln): -2.24 ± 0.28

## UUCCAGCAAUAUUACGGUUG
30 °C
  self-splicing fitness (ln): -2.43 ± 0.11
37 °C
  self-splicing fitness (ln): -1.75 ± 0.16

## AAAGAGCAAUAUUACGAAGA
30 °C
  self-splicing fitness (ln): -4.23 ± 0.46
37 °C
  self-splicing fitness (ln): -1.64 ± 0.21
